Assay [1] addresses T1, canine OX40L, full length membrane form, expressed on HEK293 cells (canine).
T1 construct: also called OX40L expressing HEK; HEK OX40L cells
T1 chain: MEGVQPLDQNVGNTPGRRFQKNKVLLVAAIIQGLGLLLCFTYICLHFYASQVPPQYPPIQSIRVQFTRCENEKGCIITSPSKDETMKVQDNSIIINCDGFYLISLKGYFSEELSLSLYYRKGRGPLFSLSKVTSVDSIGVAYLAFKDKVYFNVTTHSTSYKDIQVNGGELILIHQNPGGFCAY
The assay is described as follows: flow cytometry. The gist of the method: (§1)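 CHO supernatants at 1, 5 or 10 μg/ml in PBS/3% FBS incubated 30′ on ice with cells surface-expressing canine OX40L. Bound antibody detected with fluorescent anti-canine Fc secondary (1:1000, 30 min, dark) and measured by flow cytometry, with parental WT HEK signal subtracted where stated.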
(In general: A flow cytometer gives signals particle by particle.)

In assay [2] the target is T2, recombinant canine OX40L ECD-TNCc-HIS protein (canine).
T2 construct: also called Trimeric OX40L probe (HIS tag); trimeric canine OX40L
T2 chain: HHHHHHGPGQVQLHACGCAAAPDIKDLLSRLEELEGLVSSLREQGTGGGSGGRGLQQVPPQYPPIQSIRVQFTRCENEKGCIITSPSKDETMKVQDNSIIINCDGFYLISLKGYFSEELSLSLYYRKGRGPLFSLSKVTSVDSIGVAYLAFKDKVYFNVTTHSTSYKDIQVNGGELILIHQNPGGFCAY
Description: SPR Koff (kd2). The protocol: (§2) Affinity (Kd) of OX40L antibodies is measured by SPR, using a recombinant canine OX40L ECD-TNCc-HIS protein (Seq ID 811) as the capturing agent (FIG. 5B).
(§3) Functional affinity is determined using a Biakore 8K (Cytiva). in brief, purified OX40L ECD-TNCc-HIS protein is covalently bound at low density to the surface of a CM5 sensor chip (Cytiva) by amine coupling, using the manufacturer's recommended protocol. Candidate antibodies are subsequently passed across the chip surface at a range of concentrations and affinity determined using the dedicated software (Biacore Insight Evaluation Software). Curves were fitted using a bivalent analyte binding model.

Assay [3] addresses T1, canine OX40L, full length membrane …. The assay is described as follows: cell-based or functional assay.
Assay [4] shares this target. The assay is described as follows: flow cytometry, OX40L HEK minus WT HEK. In a few lines:
as §1

Assay [5] addresses T2, recombinant canine OX40L ECD-TNCc-HIS …. The assay is described as follows: SPR Koff (kd1). The procedure:
as §2, §3

For assay [6] the target is unchanged. Description: SPR KD1, bivalent analyte model. The protocol: as §2, §3

B1: PMX054 (antibody, V domains shown)
VH: EVHLVESGGDLVKPEGSLRLSCVVSGFTFSSYDMSWVRQAPGKGLQWVAYISSDGRSTGYTDAVKGRFTISRDNAKKTLYLQMNSLRSEDTAVYYCAKETPRWGFDYWGQGTLVTVSS
VL: SYVLTQLPSVSVTLRQTARITCGGASIGSKNVYWHQQKLGQAPLLIIYDDSSRPSGIPERFSGANSGNTATLTISGALAEDEADYYCQVWDSSTSVFGGGTHLTVL
notes: also called PMX54
Usually koff stands for the first-order rate constant of dissociation. As for B1, in assay [1], the “GEO mean OX40L expressing HEK” value turned out to be 3.27e+06. Besides, the koff in assay [2] came out at 0.0848 s⁻¹. In assay [3], the “% Signal Inhibition Average” value is 32%, the “% Signal Inhibition Rep1” value is 21%, the “% Signal Inhibition Rep2” value turned out to be 32.8% and the “% Signal Inhibition Rep3” value was 42%. This molecule came in with a GEO mean difference in assay [4] of 3.24e+06. The off-rate constant (koff) in assay [5] amounted to 0.0345 s⁻¹. The Kd in assay [6] is 5.76 nM.

B2: PMX052 (antibody, V domains shown)
VH: EVQLVESGGDLVKPAGSLRLSCVASGFTFSSYSMSWVRQAPEKGLQLVAGISGGGSRTYYSDAVKGRFTISRDNAKNTVYLQMNSLRAEDTAIYYCAKDGGSWAGYNFDYWGQGTLVTVSS
VL: DIVMTQTPPSLSVSPRETASISCKASQSLLHSDGSTYLDWYLQKPGQSPQLLIYLGSNRFTGVSDRFSGSGSGTEFTLRISRVEANDTGVYYCGQGTQLPYTFGQGTELEIK
notes: also called PMX52
For B2, the “GEO mean OX40L expressing HEK” value in assay [1] was found to be 765000. In addition, the koff in assay [2] worked out at 0.0725 s⁻¹. In assay [3], the “% Signal Inhibition Average” value is 22.2%, the “% Signal Inhibition Rep1” value came to 15.7%, the “% Signal Inhibition Rep2” value worked out at 29.2% and the “% Signal Inhibition Rep3” value was 21.7%. Further, the GEO mean difference in assay [4] amounted to 734000. Moreover, in assay [5], the koff stood at 0.00276 s⁻¹. Moreover, in assay [6], the Kd was found to be 12 nM.

B3: PMX047 (antibody, V domains shown)
VH: EVQLVESGGDLVKPGGSLRLSCVASGFIFSSYSMSWVRQAPEKGLQLVAGINSAGSSTYYTDAVKGRFTISRDNAKNTVYLQMNSLRAEDTAIYYCAKRWVFDFWGQGTLVTVSS
VL: HIVMTQTPLSLSVSPGEPASISCKASQSLLLSYGNTYLYWFRQKPGQSPQRLIYKVSNRDPGVPDRFSGSGSGTDFTLRISRVEADDAGVYYCGQGIQDPFTFGQGTKLEIK
notes: also called PMX47
In the case of B3, the “GEO mean OX40L expressing HEK” value in assay [1] was determined as 1.95e+06. For the same molecule, the koff in assay [2] amounted to 1.5e-05 s⁻¹. Moreover, in assay [3], the “% Signal Inhibition Average” value is 61.6%, the “% Signal Inhibition Rep1” value came to 49.3%, the “% Signal Inhibition Rep2” value was 73.1% and the “% Signal Inhibition Rep3” value is 62.3%. Also, in assay [4], the GEO mean difference is 1.92e+06. Moreover, the koff in assay [5] came to 0.000451 s⁻¹. Further, the Kd in assay [6] came to 12.5 nM.

B4: PMX053 (antibody, V domains shown)
VH: EVQLVESGGDLVKPAGSLRLSCVASGFTFSSYSMSWVRQAPEKGLQLVAGINSAGSSTYYTDAVKGRFTISRDNAKNTVYLQMNSLRAEDTAIYYCAKRWVFDYWGQGTLVTVSS
VL: DIVMTQTPLSLSVSPGEPASISCKASQSLPHSLGNTYLYWFRQKPGQSPQRLIYKVSNRDPGVPDRFSGSGSGTDFTLRISRVEADDAGIYYCGQGIQDPFTFGQGTKLEIK
notes: also called PMX53
With B4, the “GEO mean OX40L expressing HEK” value in assay [1] is 3.03e+06. Also, in assay [2], the koff is 0.565 s⁻¹. Also, in assay [3], the “% Signal Inhibition Average” value was 39.7%, the “% Signal Inhibition Rep1” value came to 24.5%, the “% Signal Inhibition Rep2” value came to 45.8% and the “% Signal Inhibition Rep3” value is 48.9%. Further, the GEO mean difference in assay [4] was determined as 3e+06. Besides, the koff in assay [5] was 0.000587 s⁻¹. The Kd in assay [6] was determined as 3.4 nM.

B5: PMX055 (antibody)
heavy: EVQLEESGGDLVKPEGSLRLSCVVSGFTLSTFGMSWVRQAPGKGLQWVAYISSDGRSTSYTDAVKGRFTISRDNAKNTLYLQMNSLRTDDTAVYYCVQLGRGFGIDYWGHGTSLFVSSASTTAPSVFPLAPSCGSTSGSTVALACLVSGYFPEPVTVSWNSGSLTSGVHTFPSVLQSSGLYSLSSMVTVPSSRWPSETFTCNVAHPASKTKVDKPVPKRENGRVPRPPDCPKCPAPESLGGPSVFIFPPKPKDTLLIARTPEVTCVVVDLGREDPEVQISWFVDGKQMQTAKTQPREEQFNGTYRVVSVLPIGHQDWLKGKQFTCKVNHIGLPSPIERTISKARGQAHQPSVYVLPPSREELSKNTVSLTCLIKDFFPPDIDVEWQSNGQQEPESKYRTTPPQLDEDGSYFLYSKLSVDKSRWQRGDTFICAVMHEALHNHYTQKSLSHSPGK
VL: SYVLTQLPSKNVTLRQPAHIPCGGDNIGSKSVHWYQQKLGQAPVLIIYYDTSRPTGIPERFSGANSGNTATLTISGALAEDEADYYCQVWDSSAAVFGGGTHLTVL
notes: also called PMX55
Take B5: in assay [1], the “GEO mean OX40L expressing HEK” value worked out at 3.26e+06. In assay [2], the dissociation rate constant (koff) came out at 0.401 s⁻¹. Further, in assay [3], the “% Signal Inhibition Average” value was determined as 52.8%, the “% Signal Inhibition Rep1” value is 48.3%, the “% Signal Inhibition Rep2” value was 57.7% and the “% Signal Inhibition Rep3” value came to 52.3%. In assay [4], this molecule had a GEO mean difference of 3.23e+06. In assay [5], the koff was 0.00366 s⁻¹. Further, in assay [6], the Kd was 5.43 nM.

B6: PMX059 (antibody, V domains shown)
VH: EVHLVESGGDLVKPEGSLRLSCVVSGFTFSNYVMNWVRQAPGKGLQWVAFISGDGRSTTYTDAVKSRFTISRDNAKNTLYLQMSSLRTEDTAIYFCAKEKYSSGWSFEYWGQGTLVTVSS
VL: SYVLTQLPSKNVTLKQPAHITCGGDNIGSKSVHWYQQKLGQAPVLIIYYDSSRPTGIPERFSGANSGNTATLTISGALAEDEADYYCQVWDSSASVFGGGTHLTVL
notes: also called PMX59
B6: in assay [1], the “GEO mean OX40L expressing HEK” value was found to be 3.14e+06. For the same molecule, in assay [2], the koff turned out to be 0.00737 s⁻¹. Besides, in assay [3], the “% Signal Inhibition Average” value amounted to 57.8%, the “% Signal Inhibition Rep1” value was 51.1%, the “% Signal Inhibition Rep2” value was 64.3% and the “% Signal Inhibition Rep3” value came out at 58%. In assay [4], this molecule returned a GEO mean difference of 3.11e+06. For the same molecule, the koff in assay [5] came to 0.00737 s⁻¹. For the same molecule, the Kd in assay [6] worked out at 10 nM.

B7: PMX057 (antibody, V domains shown)
VH: EVQLVESGGDLVKPEGSLRLSCVVSGFTFNNYGMSWVRQAPGKGLQWVAYISIDGRSTSYTDAVKGRFTISRDNAKNTLYLHINSLRTEDTAVYYCTKLGRGFTFGYWGQGTLVTVSS
VL: SYVLTQLPSKNVTLKQPAHITCGGDNIGSKSVHWYQQKLGQAPALIIYYDSSRPTGIPERFSGANSGNTATLTISGALAEDEADYYCQVWDSSVSVFGGGTHLTVL
notes: also called PMX57
Turning to B7, in assay [1], the “GEO mean OX40L expressing HEK” value came to 3.32e+06. In addition, the off-rate (koff) in assay [2] was 0.22 s⁻¹. In addition, in assay [3], the “% Signal Inhibition Average” value came out at 66%, the “% Signal Inhibition Rep1” value is 52.1%, the “% Signal Inhibition Rep2” value was 72% and the “% Signal Inhibition Rep3” value was determined as 73.9%. In assay [4], this molecule came in with a GEO mean difference of 3.29e+06. In assay [5], the koff amounted to 0.00472 s⁻¹. In addition, the Kd in assay [6] came out at 1.29 nM.

B8: PMX058 (antibody, V domains shown)
VH: EVQLVESGGDLVKPEGSLRLSCVVSDFTFGSYGMSWVRQAPGKGLQWVAYISSDGRSTSYTDAVKGRFTISRDNAKNTLHLQMNSLRTEDTAVYYCAKLGRGFAFGYWGQGTLVTVSS
VL: SYVLTQLPSKNVTLKQPAHITCGGDNIGSKSVHWYQQKLGQAPVLIIYYDSNRPTGIPERFSGANSGNTATLTISGALAEDEADYYCQVWDSSASVFGGGTHLTVL
notes: also called PMX58
With B8, the “GEO mean OX40L expressing HEK” value in assay [1] is 3.34e+06. Besides, in assay [2], the koff amounted to 0.323 s⁻¹. Further, in assay [3], the “% Signal Inhibition Average” value turned out to be 29.1%, the “% Signal Inhibition Rep1” value is 12.4%, the “% Signal Inhibition Rep2” value was 35.3% and the “% Signal Inhibition Rep3” value amounted to 39.5%. The same molecule returned a GEO mean difference in assay [4] of 3.31e+06. Besides, the off-rate (koff) in assay [5] was 0.0144 s⁻¹. The Kd in assay [6] is 8.46 nM.

B9: PMX056 (antibody)
heavy: EVQLVESGGDLVKPEGSLRLSCVVSGFTLSSYGMSWVRQAPGRGLQWVAYISSDGRSTSYTDAVKGRFTISRDNAKNTLYLQMNSLRSEDTAVYYCVQLGRGFGMDYWGHGTSLFVSSASTTAPSVFPLAPSCGSTSGSTVALACLVSGYFPEPVTVSWNSGSLTSGVHTFPSVLQSSGLYSLSSMVTVPSSRWPSETFTCNVAHPASKTKVDKPVPKRENGRVPRPPDCPKCPAPESLGGPSVFIFPPKPKDTLLIARTPEVTCVVVDLGREDPEVQISWFVDGKQMQTAKTQPREEQFNGTYRVVSVLPIGHQDWLKGKQFTCKVNHIGLPSPIERTISKARGQAHQPSVYVLPPSREELSKNTVSLTCLIKDFFPPDIDVEWQSNGQQEPESKYRTTPPQLDEDGSYFLYSKLSVDKSRWQRGDTFICAVMHEALHNHYTQKSLSHSPGK
VL: SYVLTQLPSKNVTLKQPAHITCGGDNIGSKSVHWYQQKLGQAPVVIIYYDSTRPTGIPERFSGANSGNTATLTISGALAEDEADYYCQVWDSSAAVFGGGTHLTVL
notes: also called PMX56
As for B9, the “GEO mean OX40L expressing HEK” value in assay [1] amounted to 3.16e+06. Besides, the koff in assay [2] amounted to 0.000624 s⁻¹. Moreover, in assay [3], the “% Signal Inhibition Average” value turned out to be 44.3%, the “% Signal Inhibition Rep1” value stood at 27.3%, the “% Signal Inhibition Rep2” value was 57% and the “% Signal Inhibition Rep3” value amounted to 48.5%. Besides, the GEO mean difference in assay [4] amounted to 3.13e+06. The off-rate constant (koff) in assay [5] stood at 0.0148 s⁻¹. For the same molecule, the Kd in assay [6] stood at 61 nM.

The values above are taken from patent publication US20250340659A1 (PETMEDIX, published 2025).
